From patent US20120148575A1 come the findings set out here.

Some targets named below: huFcRI; huFcgRIIIA - 158V; huFcgRIIb; muFcgRIII; muFcgRIIb; muFcgRIV; muFcgRI.
Holding throughout (test): SPR
(SPR reads the build-up and loss of mass on a sensor chip optically.)

Chain of muFcgRIV (A0A0B4J1G0 21-203): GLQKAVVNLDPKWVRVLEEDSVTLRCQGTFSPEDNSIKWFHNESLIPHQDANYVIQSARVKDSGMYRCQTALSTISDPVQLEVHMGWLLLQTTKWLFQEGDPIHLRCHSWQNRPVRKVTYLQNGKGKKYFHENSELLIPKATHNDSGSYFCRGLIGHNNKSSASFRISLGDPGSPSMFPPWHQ

Consider Control, for which the equilibrium dissociation constant (Kd) – broadly, the equilibrium constant for the complex coming apart – came to 19 nM with huFcRI; 574 nM with huFcgRIIIA - 158V; 14500 nM with huFcgRIIb; 6360 nM in the assay with muFcgRIII; 1470 nM with muFcgRIIb.
As to Hu IgG1, the values for the Kd with muFcgRIII, with muFcgRIIb and with muFcgRIV were 3660 nM, 1240 nM and 253 nM, respectively.
As to Hu IgG1 afuc, the Kd was found to be 3960 nM in the assay with muFcgRIII, 1260 nM with muFcgRIIb, 43 nM with muFcgRIV and 397 nM in the assay with muFcgRI.
